US20210340516A1, “COMPOSITIONS CONTAINING ARGINASE 1 FOR THE TREATMENT OF NEUROVASCULAR AND RETINAL VASCULAR DISORDERS” (Augusta University Research Institute, Inc., priority 2020, published 2021)

Tests used:
[1] = test system: primary rat retinal mixed neurons; experiment: Primary retinal mixed neurons subjected to OGD/R, LDH release assay; settings: 6 hours OGD and 18 hours reperfusion, ABH 100 μM at reoxygenation
Protocol: Retinas from ten pups were collected and washed twice with ice-cold 1×PBS. They were digested with 0.5% trypsin for 3-4 min at 37° C., followed by trypsin inactivation with the culture medium, DMEM/F12 (Gibco, Grand Island, N.Y.) plus 10% FBS and 1% Penicillin-Streptomycin (P/S) solution (Invitrogen, Grand Island, N.Y.). The retina tissue was mechanically dissociated by pipetting several times until cells were dispersed. Cells were then filtered through a 40 μm nylon-mesh filter, collected by centrifugation at 1000 rpm for 10 min, re-suspended in culture medium, and plated in 6 or 12 well-cell culture plates (Corning, Corning, N.Y.) coated with Poly-D-lysine hydrobromide (PDL, Sigma) at a density of 0.5×10^6 cells/mL. The plates were maintained in a humidified CO2 incubator at 37° C. and 5% CO2. At days 1, 2, and 3 in vitro (DIV), half of the medium was aspirated and replaced with Neurobasal A medium containing 1×B-27 (GIBCO), 1× glutaMAX (GIBCO) and 1% P/S. Experiments were conducted at DIV 6.

[2] = native enzyme, comparison; cited from earlier work
[3] = test system: mouse model of acute retinal ischemia; settings: intravitreal injection (Fouda 2018); cited from earlier work

## N[C@@H](CCCCB(O)O)C(=O)O [ABH, 2(S)-amino-6-boronohexanoic acid, reference compound]
[1]
  cell death (LDH release): trend towards increased cell death

B1: native enzyme: native, non-PEGylated arginase, compared with PEG-A1 for half-life (protein, UniProt P05089 1-322, looked up)
Arginase-1: MSAKSRTIGIIGAPFSKGQPRGGVEEGPTVLRKAGLLEKLKEQECDVKDYGDLPFADIPNDSPFQIVKNPRSVGKASEQLAGKVAEVKKNGRISLVLGGDHSLAIGSISGHARVHPDLGVIWVDAHTDINTPLTTTSGNLHGQPVSFLLKELKGKIPDVPGFSWVTPCISAKDIVYIGLRDVDPGEHYILKTLGIKYFSMTEVDRLGIGKVMEETLSYLLGRKKRPIHLSFDVDGLDPSFTPATGTPVVGGLTYREGLYITEEIYKTGLLSGLDIMEVNPSLGKTPEEVTRTVNTAVAITLACFGLAREGNHKPIDYLNPPK
[2]
  half-life in vivo: a few minutes

B2: A1: arginase 1 given by intravitreal injection in an earlier study (Fouda 2018) (protein, UniProt P05089 1-322, looked up)
Arginase-1: MSAKSRTIGIIGAPFSKGQPRGGVEEGPTVLRKAGLLEKLKEQECDVKDYGDLPFADIPNDSPFQIVKNPRSVGKASEQLAGKVAEVKKNGRISLVLGGDHSLAIGSISGHARVHPDLGVIWVDAHTDINTPLTTTSGNLHGQPVSFLLKELKGKIPDVPGFSWVTPCISAKDIVYIGLRDVDPGEHYILKTLGIKYFSMTEVDRLGIGKVMEETLSYLLGRKKRPIHLSFDVDGLDPSFTPATGTPVVGGLTYREGLYITEEIYKTGLLSGLDIMEVNPSLGKTPEEVTRTVNTAVAITLACFGLAREGNHKPIDYLNPPK
[3]
  neuroprotection in acute retinal ischemia: showed neuroprotection
